Measurements as given in patent publication US20240209096A1 (INVETX, published 2024).
Where a chain is given by its changes, count along the chain named. In names and notes the source's numbering stands.

T1: canine FcRn (soluble large subunit p51 isoform X2 with 6xHis-tag, co-expressed with canine … (canine))
T1 construct: Heterodimer made by co-expression in CHO cells, purified on HISTRAP FF, >95% pure by SEC; Both entries hold a 19-residue signal peptide at the N-terminus that should be removed (residues 1-19); also called FcRn complex
T1 chain: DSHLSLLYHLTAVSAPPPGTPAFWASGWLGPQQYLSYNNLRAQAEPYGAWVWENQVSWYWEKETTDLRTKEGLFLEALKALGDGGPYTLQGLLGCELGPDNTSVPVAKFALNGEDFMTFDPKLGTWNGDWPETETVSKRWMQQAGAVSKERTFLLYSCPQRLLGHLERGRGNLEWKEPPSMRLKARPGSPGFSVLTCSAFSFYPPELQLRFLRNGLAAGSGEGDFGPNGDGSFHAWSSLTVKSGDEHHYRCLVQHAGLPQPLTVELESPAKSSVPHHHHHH
T1 b2m: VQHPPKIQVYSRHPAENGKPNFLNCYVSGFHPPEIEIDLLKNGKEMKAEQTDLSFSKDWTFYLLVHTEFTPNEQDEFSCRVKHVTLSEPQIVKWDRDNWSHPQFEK

B1: IgG with canine IgGB Fc variant L252M (antibody)
heavy: EVQLVESGGDLVAPSQSLSITCTVSGMSLTSNSISWVRQPPGRGLEWLGTIWSNGGTDYTDAVKGRFTISRDNAKNTVYLQMNSLRAEDTAMYYCAQIYYYDADYLHWYFDFWGQGTLVTVSSASTTAPSVFPLAPSCGSTSGSTVALACLVSGYFPEPVTVSWNSGSLTSGVHTFPSVLQSSGLYSLSSMVTVPSSRWPSETFTCNVAHPASKTKVDKPVPKRENGRVPRPPDCPKCPAPEAAGGPSVFIFPPKPKDTLMIARTPEVTCVVVDLDPEDPEVQISWFVDGKQMQTAKTQPREEQFNGTYRVVSVLPIGHQDWLKGKQFTCKVNNKALPSPIERTISKARGQAHQPSVYVLPPSREELSKNTVSLTCLIKDFFPPDIDVEWQSNGQQEPESKYRTTPPQLDEDGSYFLYSKLSVDKSRWQRGDTFICAVMHEALHNHYTQESLSHSPG
light: EIVMTQSPASLSASQEEKVTITCRASEGISNNLAWYQQKPGQAPKLLIHATSSLQTGVPSRFSGSGSGTDFTLTISSLQPEDFATYYCQQGYQFPLTFGQGTKVEIKRNDAQPAVYLFQPSPDQLHTGSASVVCLLNSFYPKDINVKWKVDGVIQDTGIQESVTEQDKDSTYSLSSTLTMSSTEYLSHELYSCEITHKSLPSTLIKSFQRSECQRVD
notes: Full chains; canine IgGB constant domain with MALA mutations; variable domains of WO 2023/97275
B2: IgG with canine IgGB Fc variant L252M, A426H (antibody)
heavy: B1 heavy with A437H
light: B1 light
notes: as for B1
B3: IgG with canine IgGB Fc variant L252M, A426L (antibody)
heavy: B1 heavy with A437L
light: B1 light
notes: as for B1
B4: IgG with canine IgGB Fc variant L252M, A426Y (antibody)
heavy: B1 heavy with A437Y
light: B1 light
notes: as for B1
B5: IgG with canine IgGB Fc variant L252M, T286F (antibody)
heavy: B1 heavy with T295F
light: B1 light
notes: as for B1
B6: IgG with canine IgGB Fc variant L252M, T286L (antibody)
heavy: B1 heavy with T295L
light: B1 light
notes: as for B1
B7: IgG with canine IgGB Fc variant L252M, T286W (antibody)
heavy: B1 heavy with T295W
light: B1 light
notes: as for B1
B8: IgG with canine IgGB Fc variant L252M, T286Y (antibody)
heavy: B1 heavy with T295Y
light: B1 light
notes: as for B1
B9: IgG with canine IgGB Fc variant L252Y (antibody)
heavy: B1 heavy with M261Y
light: B1 light
notes: as for B1
B10: IgG with canine IgGB Fc variant L252Y, A426H (antibody)
heavy: B1 heavy with M261Y, A437H
light: B1 light
notes: as for B1
B11: IgG with canine IgGB Fc variant L252Y, A426L (antibody)
heavy: B1 heavy with M261Y, A437L
light: B1 light
notes: as for B1
B12: IgG with canine IgGB Fc variant L252Y, T286F (antibody)
heavy: B1 heavy with M261Y, T295F
light: B1 light
notes: as for B1
B13: IgG with canine IgGB Fc variant L252Y, T286L (antibody)
heavy: B1 heavy with M261Y, T295L
light: B1 light
notes: as for B1
B14: IgG with canine IgGB Fc variant L252Y, T286W (antibody)
heavy: B1 heavy with M261Y, T295W
light: B1 light
notes: as for B1
B15: IgG with canine IgGB Fc variant L252Y, T286Y (antibody)
heavy: B1 heavy with M261Y, T295Y
light: B1 light
notes: as for B1
B16: IgG with canine IgGB Fc variant N434H (antibody)
heavy: B1 heavy with M261L, N445H
light: B1 light
notes: as for B1
B17: IgG with canine IgGB Fc variant N434H, A426F (antibody)
heavy: B1 heavy with M261L, A437F, N445H
light: B1 light
notes: as for B1
B18: IgG with canine IgGB Fc variant N434H, A426L (antibody)
heavy: B1 heavy with M261L, A437L, N445H
light: B1 light
notes: as for B1
B19: IgG with canine IgGB Fc variant N434H, A426W (antibody)
heavy: B1 heavy with M261L, A437W, N445H
light: B1 light
notes: as for B1
B20: IgG with canine IgGB Fc variant N434H, A426Y (antibody)
heavy: B1 heavy with M261L, A437Y, N445H
light: B1 light
notes: as for B1
B21: IgG with canine IgGB Fc variant N434H, T286F (antibody)
heavy: B1 heavy with M261L, T295F, N445H
light: B1 light
notes: as for B1
B22: IgG with canine IgGB Fc variant N434H, T286L (antibody)
heavy: B1 heavy with M261L, T295L, N445H
light: B1 light
notes: as for B1
B23: IgG with canine IgGB Fc variant N434H, T286W (antibody)
heavy: B1 heavy with M261L, T295W, N445H
light: B1 light
notes: as for B1

Experiments:
[1] = target: T1, canine FcRn (soluble large subunit p51 …); assay: SPR, IgG on protein L chip, FcRn in flow, pH 5.9, 1:1 fit
Method: (§1) The canine FcRn binding experiments at pH 5.9 and pH 7.4 were completed on a BIACORE™ T200 instrument. A Series S Protein L Sensor chip (Cytiva, Cat. No. BR29205137) was used to capture the antibody variants via the kappa (κ) light chain. The canine variants were captured onto the protein L chip at a flow rate of 10 μL/min for 60 seconds. Approximately 250 RUs of the variants were captured. For the low pH binding condition, 1×PBX-P+ (Cytiva, Cat. No. 28995084) was adjusted to pH 5.9. The canine FcRn was flowed over the sensor chip at 30 μL/min for 120 seconds contact time and 600 seconds dissociation time. Regeneration of the flow cells was completed by flowing over 10 mM glycine, pH 1.7 at 30 μL/min for 30 seconds. The data were evaluated by the BIACORE™ T200 Evaluation software (version 3.2.1) by fitting to a 1:1 kinetic interaction model.

[2] = target: T1, canine FcRn (soluble large subunit p51 …); assay: SPR, IgG on protein L chip, FcRn in flow, pH 7.4, steady state fit
Method: as §1
A subset of the Fc variants was tested for binding to canine FcRn at pH 7.4. For these experiments, 1×PBX-P+ (Cytiva, Cat. No. 28995084) was adjusted to pH 7.4. […] In addition, the pH 7.4 data were evaluated by the BIACORE™ T200 Evaluation software (version 3.2.1) by fitting to steady state affinity model. The kinetic binding data for the variants at pH 7.4 along with the binding data at pH 5.9 for these variants are shown in Table 7 below.

[3] = target: T1, canine FcRn (soluble large subunit p51 …); assay: SPR, IgG on protein L chip, FcRn in flow, pH 5.9, kinetic data
Method: as §1

Row | Binder | Kd [1] [nM] | koff [1] [s⁻¹] | kon [1] [M⁻¹ s⁻¹] | Kd [2] [nM] | Kd [3] [nM] | koff [3] [s⁻¹] | kon [3] [M⁻¹ s⁻¹]
1 | B1 | 40.7 | 0.00335 | 82400 | – | – | – | –
2 | B2 | 37 | 0.065 | 1.76e+06 | – | – | – | –
3 | B3 | 102 | 0.111 | 1.09e+06 | – | – | – | –
4 | B4 | 57.4 | 0.0581 | 1.01e+06 | – | – | – | –
5 | B5 | 71.8 | 0.0937 | 1.31e+06 | – | – | – | –
6 | B6 | 90 | 0.111 | 1.23e+06 | – | – | – | –
7 | B7 | 64.5 | 0.0912 | 1.42e+06 | – | – | – | –
8 | B8 | 66.6 | 0.0822 | 1.24e+06 | – | – | – | –
9 | B9 | 43.5 | 0.0491 | 1.13e+06 | 4440 | 43.5 | 0.0491 | 1.13e+06
10 | B10 | 3.76 | 0.00598 | 1.59e+06 | 388 | 3.76 | 0.00598 | 1.59e+06
11 | B11 | 6.41 | 0.012 | 1.87e+06 | 713 | 6.41 | 0.012 | 1.87e+06
12 | B12 | 10.8 | 0.0193 | 1.79e+06 | – | – | – | –
13 | B13 | 18.2 | 0.0237 | 1.31e+06 | 2620 | 18.2 | 0.0237 | 1.31e+06
14 | B14 | 9.82 | 0.0203 | 2.07e+06 | – | – | – | –
15 | B15 | 10.2 | 0.018 | 1.76e+06 | – | – | – | –
16 | B16 | 55.3 | 0.097 | 1.75e+06 | 5400 | 55.3 | 0.097 | 1.75e+06
17 | B17 | 11.8 | 0.0296 | 2.5e+06 | 1380 | 11.8 | 0.0296 | 2.5e+06
18 | B18 | 18.9 | 0.0492 | 2.61e+06 | 2030 | 18.9 | 0.0492 | 2.61e+06
19 | B19 | 14.5 | 0.0406 | 2.79e+06 | 1790 | 14.5 | 0.0406 | 2.79e+06
20 | B20 | 10.9 | 0.0252 | 2.31e+06 | 1050 | 10.9 | 0.0252 | 2.31e+06
21 | B21 | 14.4 | 0.0361 | 2.52e+06 | 2370 | 14.4 | 0.0361 | 2.52e+06
22 | B22 | 21.3 | 0.0518 | 2.44e+06 | 3450 | 21.3 | 0.0518 | 2.44e+06
23 | B23 | 11.5 | 0.0321 | 2.78e+06 | 2070 | 11.5 | 0.0321 | 2.78e+06
